Data set [1] concerns the target T1, MS2CP (MS2 coat protein) (bacteriophage MS2, UniProt P03612 2-130). Put plainly: EMSA; 6 mM Mg2+, 2 mM spermidine; EMSA, 1 uM RNA, 4 C 30 min, 12% native PAGE at 4 C; 1x from 5x buffer: U1A 20 mM HEPES pH 7.5, 80 mM KCl, 20 mM NaCl, 2 mM DTT; MS2CP 40 mM HEPES pH 7.5, 10 mM. The note with it: protein: recombinant; tags: His; chain copies: 2; two hairpins. On the technique in general: A gel shift assay detects complexes by their altered migration in electrophoresis.

Data set [2] deals with T1, MS2CP (MS2 coat protein). The data set can be described thus: EMSA; 6 mM Mg2+, 2 mM spermidine; affinity similar to native U; EMSA, 1 uM RNA, 4 C 30 min, 12% native PAGE at 4 C; 1x from 5x buffer: U1A 20 mM HEPES pH 7.5, 80 mM KCl, 20 mM NaCl, 2 mM DTT; MS2CP 40 mM HEPES pH 7.5, 10 mM. Particulars: protein: recombinant; tags: His; chain copies: 2; two hairpins.

T1 sequence (P03612 2-130): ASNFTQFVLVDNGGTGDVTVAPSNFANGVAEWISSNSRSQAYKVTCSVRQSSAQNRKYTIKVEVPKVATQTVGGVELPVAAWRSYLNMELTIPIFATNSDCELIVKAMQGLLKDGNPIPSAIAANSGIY

B1: 2x MS2 aptamer, native U (structured_RNA)
RNA: GGGAGCAGGUGAGGAUCACCCAUCUGCCACGAGCGAGGUGAGGAUCACCCAUCUCGCUCGUGUUCCC
With B1, the binding result with MS2CP (MS2 coat protein) [1] is “binds”.

B2: 2x MS2 aptamer, m1Ψ (structured_RNA)
RNA: GGGAGCAGGUGAGGAUCACCCAUCUGCCACGAGCGAGGUGAGGAUCACCCAUCUCGCUCGUGUUCCC
modifications: all U replaced by N1-methylpseudouridine
As for B2, in the data set with MS2CP (MS2 coat protein) [2], the binding result is “binds”.

Source of the values: publication PMC7102939, “N 1-Methylpseudouridine substitution enhances the performance of synthetic mRNA switches in cells”.
